Starred links: 1 amine or outer side, 2 acyl side, 3 side chain; linkers in the order of their positions; H or OH if unused. Non-standard residues stand in square brackets, D forms with d. *: point of attachment. C20 diacid = O=C(O)CCCCCCCCCCCCCCCCCCC(=O)*; γGlu = O=C(O)[C@H](CCC(=O)[*:2])N[*:1]; Hyp = O=C(O)[C@@H]1C[C@@H](O)CN1; NMeN = CN[C@@H](CC(N)=O)C(=O)O
T1: human amylin receptor (AMY3) on CHO-K1/Ga15/AMY3 amylin receptor/CRE-luc cells (human, UniProt P30988 25-474; O60896 24-148)
T1 sequence (looked up) 1: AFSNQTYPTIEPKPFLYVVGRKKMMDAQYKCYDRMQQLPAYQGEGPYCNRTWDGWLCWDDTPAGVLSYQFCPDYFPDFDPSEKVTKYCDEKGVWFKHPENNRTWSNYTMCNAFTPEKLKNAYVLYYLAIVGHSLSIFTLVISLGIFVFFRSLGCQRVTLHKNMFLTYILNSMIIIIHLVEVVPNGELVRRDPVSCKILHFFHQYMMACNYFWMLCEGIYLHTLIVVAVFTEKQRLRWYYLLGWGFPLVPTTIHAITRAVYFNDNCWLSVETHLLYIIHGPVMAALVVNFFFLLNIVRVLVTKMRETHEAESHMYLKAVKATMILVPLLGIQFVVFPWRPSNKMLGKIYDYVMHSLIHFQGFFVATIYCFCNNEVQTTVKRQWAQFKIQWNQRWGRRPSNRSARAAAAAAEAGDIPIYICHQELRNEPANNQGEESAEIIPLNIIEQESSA
T1 sequence (looked up) 2: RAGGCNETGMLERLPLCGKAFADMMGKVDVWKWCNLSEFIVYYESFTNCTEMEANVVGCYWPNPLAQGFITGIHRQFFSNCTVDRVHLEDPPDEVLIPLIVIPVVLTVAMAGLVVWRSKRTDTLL


Target: T1, human amylin receptor (AMY3) on …
Assay: cell-based or functional assay

Binder	EC50/nM, CRE-luciferase reporter in amylin receptor/CRE-luc CHO cells [nM]	Relative activity (the EC50 ratio of Cagrilintide to the compound) [%]
{C20 diacid-γGlu}-ASQLSTAVLGRLADFLRHFTDRDRDILPPTNVGSNTP-NH2 (SMILES CC[C@H](C)[C@H](NC(=O)[C@H](CC(=O)O)NC(=O)[C@H](CCCNC(=N)N)NC(=O)[C@H](CC(=O)O)NC(=O)[C@H](CCCNC(=N)N)NC(=O)[C@H](CC(=O)O)NC(=O)[C@@H](NC(=O)[C@H](Cc1ccccc1)NC(=O)[C@H](Cc1c[nH]cn1)NC(=O)[C@H](CCCNC(=N)N)NC(=O)[C@H](CC(C)C)NC(=O)[C@H](Cc1ccccc1)NC(=O)[C@H](CC(=O)O)NC(=O)[C@H](C)NC(=O)[C@H](CC(C)C)NC(=O)[C@H](CCCNC(=N)N)NC(=O)CNC(=O)[C@H](CC(C)C)NC(=O)[C@@H](NC(=O)[C@H](C)NC(=O)[C@@H](NC(=O)[C@H](CO)NC(=O)[C@H](CC(C)C)NC(=O)[C@H](CCC(N)=O)NC(=O)[C@H](CO)NC(=O)[C@H](C)NC(=O)CC[C@H](NC(=O)CCCCCCCCCCCCCCCCCCC(=O)O)C(=O)O)[C@@H](C)O)C(C)C)[C@@H](C)O)C(=O)N[C@@H](CC(C)C)C(=O)N1CCC[C@H]1C(=O)N1CCC[C@H]1C(=O)N[C@H](C(=O)N[C@@H](CC(N)=O)C(=O)N[C@H](C(=O)NCC(=O)N[C@@H](CO)C(=O)N[C@@H](CC(N)=O)C(=O)N[C@H](C(=O)N1CCC[C@H]1C(N)=O)[C@@H](C)O)C(C)C)[C@@H](C)O) [polypeptide derivative M4]	0.081	32
{C20 diacid-γGlu}-ASQLSTAATQRLADFLRHSSQQLKPILPPTNVGSNT[Hyp]-NH2 (SMILES CC[C@H](C)[C@H](NC(=O)[C@@H]1CCCN1C(=O)[C@H](CCCCN)NC(=O)[C@H](CC(C)C)NC(=O)[C@H](CCC(N)=O)NC(=O)[C@H](CCC(N)=O)NC(=O)[C@H](CO)NC(=O)[C@H](CO)NC(=O)[C@H](Cc1c[nH]cn1)NC(=O)[C@H](CCCNC(=N)N)NC(=O)[C@H](CC(C)C)NC(=O)[C@H](Cc1ccccc1)NC(=O)[C@H](CC(=O)O)NC(=O)[C@H](C)NC(=O)[C@H](CC(C)C)NC(=O)[C@H](CCCNC(=N)N)NC(=O)[C@H](CCC(N)=O)NC(=O)[C@@H](NC(=O)[C@H](C)NC(=O)[C@H](C)NC(=O)[C@@H](NC(=O)[C@H](CO)NC(=O)[C@H](CC(C)C)NC(=O)[C@H](CCC(N)=O)NC(=O)[C@H](CO)NC(=O)[C@H](C)NC(=O)CC[C@H](NC(=O)CCCCCCCCCCCCCCCCCCC(=O)O)C(=O)O)[C@@H](C)O)[C@@H](C)O)C(=O)N[C@@H](CC(C)C)C(=O)N1CCC[C@H]1C(=O)N1CCC[C@H]1C(=O)N[C@H](C(=O)N[C@@H](CC(N)=O)C(=O)N[C@H](C(=O)NCC(=O)N[C@@H](CO)C(=O)N[C@@H](CC(N)=O)C(=O)N[C@H](C(=O)N1C[C@H](O)C[C@H]1C(N)=O)[C@@H](C)O)C(C)C)[C@@H](C)O) [polypeptide derivative M41]	0.08	113
{C20 diacid-γGlu}-ASELSTAALGRLADFLRHFTDRDRDILPPTNVGSNTP-NH2 (SMILES CC[C@H](C)[C@H](NC(=O)[C@H](CC(=O)O)NC(=O)[C@H](CCCNC(=N)N)NC(=O)[C@H](CC(=O)O)NC(=O)[C@H](CCCNC(=N)N)NC(=O)[C@H](CC(=O)O)NC(=O)[C@@H](NC(=O)[C@H](Cc1ccccc1)NC(=O)[C@H](Cc1c[nH]cn1)NC(=O)[C@H](CCCNC(=N)N)NC(=O)[C@H](CC(C)C)NC(=O)[C@H](Cc1ccccc1)NC(=O)[C@H](CC(=O)O)NC(=O)[C@H](C)NC(=O)[C@H](CC(C)C)NC(=O)[C@H](CCCNC(=N)N)NC(=O)CNC(=O)[C@H](CC(C)C)NC(=O)[C@H](C)NC(=O)[C@H](C)NC(=O)[C@@H](NC(=O)[C@H](CO)NC(=O)[C@H](CC(C)C)NC(=O)[C@H](CCC(=O)O)NC(=O)[C@H](CO)NC(=O)[C@H](C)NC(=O)CC[C@H](NC(=O)CCCCCCCCCCCCCCCCCCC(=O)O)C(=O)O)[C@@H](C)O)[C@@H](C)O)C(=O)N[C@@H](CC(C)C)C(=O)N1CCC[C@H]1C(=O)N1CCC[C@H]1C(=O)N[C@H](C(=O)N[C@@H](CC(N)=O)C(=O)N[C@H](C(=O)NCC(=O)N[C@@H](CO)C(=O)N[C@@H](CC(N)=O)C(=O)N[C@H](C(=O)N1CCC[C@H]1C(N)=O)[C@@H](C)O)C(C)C)[C@@H](C)O) [polypeptide derivative M3]	0.081	32

Next, values leading:

EC50/nM, CRE-luciferase reporter in amylin receptor/CRE-luc CHO cells [nM]	Relative activity (the EC50 ratio of Cagrilintide to the compound) [%]	Binder
0.05	180	{C20 diacid-γGlu}-ASQLSTAATQRLADFLRHSSSSLKPILPPTNVGSNT[Hyp]-NH2 (SMILES CC[C@H](C)[C@H](NC(=O)[C@@H]1CCCN1C(=O)[C@H](CCCCN)NC(=O)[C@H](CC(C)C)NC(=O)[C@H](CO)NC(=O)[C@H](CO)NC(=O)[C@H](CO)NC(=O)[C@H](CO)NC(=O)[C@H](Cc1c[nH]cn1)NC(=O)[C@H](CCCNC(=N)N)NC(=O)[C@H](CC(C)C)NC(=O)[C@H](Cc1ccccc1)NC(=O)[C@H](CC(=O)O)NC(=O)[C@H](C)NC(=O)[C@H](CC(C)C)NC(=O)[C@H](CCCNC(=N)N)NC(=O)[C@H](CCC(N)=O)NC(=O)[C@@H](NC(=O)[C@H](C)NC(=O)[C@H](C)NC(=O)[C@@H](NC(=O)[C@H](CO)NC(=O)[C@H](CC(C)C)NC(=O)[C@H](CCC(N)=O)NC(=O)[C@H](CO)NC(=O)[C@H](C)NC(=O)CC[C@H](NC(=O)CCCCCCCCCCCCCCCCCCC(=O)O)C(=O)O)[C@@H](C)O)[C@@H](C)O)C(=O)N[C@@H](CC(C)C)C(=O)N1CCC[C@H]1C(=O)N1CCC[C@H]1C(=O)N[C@H](C(=O)N[C@@H](CC(N)=O)C(=O)N[C@H](C(=O)NCC(=O)N[C@@H](CO)C(=O)N[C@@H](CC(N)=O)C(=O)N[C@H](C(=O)N1C[C@H](O)C[C@H]1C(N)=O)[C@@H](C)O)C(C)C)[C@@H](C)O) [polypeptide derivative M43]
0.1	130	{C20 diacid-γGlu}-ASQLSTAATQRLADFLRHSSN[NMeN]LKPILPPTNVGSNT[Hyp]-NH2 (SMILES CC[C@H](C)[C@H](NC(=O)[C@@H]1CCCN1C(=O)[C@H](CCCCN)NC(=O)[C@H](CC(C)C)NC(=O)[C@H](CC(N)=O)N(C)C(=O)[C@H](CC(N)=O)NC(=O)[C@H](CO)NC(=O)[C@H](CO)NC(=O)[C@H](Cc1c[nH]cn1)NC(=O)[C@H](CCCNC(=N)N)NC(=O)[C@H](CC(C)C)NC(=O)[C@H](Cc1ccccc1)NC(=O)[C@H](CC(=O)O)NC(=O)[C@H](C)NC(=O)[C@H](CC(C)C)NC(=O)[C@H](CCCNC(=N)N)NC(=O)[C@H](CCC(N)=O)NC(=O)[C@@H](NC(=O)[C@H](C)NC(=O)[C@H](C)NC(=O)[C@@H](NC(=O)[C@H](CO)NC(=O)[C@H](CC(C)C)NC(=O)[C@H](CCC(N)=O)NC(=O)[C@H](CO)NC(=O)[C@H](C)NC(=O)CC[C@H](NC(=O)CCCCCCCCCCCCCCCCCCC(=O)O)C(=O)O)[C@@H](C)O)[C@@H](C)O)C(=O)N[C@@H](CC(C)C)C(=O)N1CCC[C@H]1C(=O)N1CCC[C@H]1C(=O)N[C@H](C(=O)N[C@@H](CC(N)=O)C(=O)N[C@H](C(=O)NCC(=O)N[C@@H](CO)C(=O)N[C@@H](CC(N)=O)C(=O)N[C@H](C(=O)N1C[C@H](O)C[C@H]1C(N)=O)[C@@H](C)O)C(C)C)[C@@H](C)O) [polypeptide derivative M44]
0.28	32	{C20 diacid-γGlu}-ASQLSTAATQRLADFLRHSSEELKPILPPTNVGSNT[Hyp]-NH2 (SMILES CC[C@H](C)[C@H](NC(=O)[C@@H]1CCCN1C(=O)[C@H](CCCCN)NC(=O)[C@H](CC(C)C)NC(=O)[C@H](CCC(=O)O)NC(=O)[C@H](CCC(=O)O)NC(=O)[C@H](CO)NC(=O)[C@H](CO)NC(=O)[C@H](Cc1c[nH]cn1)NC(=O)[C@H](CCCNC(=N)N)NC(=O)[C@H](CC(C)C)NC(=O)[C@H](Cc1ccccc1)NC(=O)[C@H](CC(=O)O)NC(=O)[C@H](C)NC(=O)[C@H](CC(C)C)NC(=O)[C@H](CCCNC(=N)N)NC(=O)[C@H](CCC(N)=O)NC(=O)[C@@H](NC(=O)[C@H](C)NC(=O)[C@H](C)NC(=O)[C@@H](NC(=O)[C@H](CO)NC(=O)[C@H](CC(C)C)NC(=O)[C@H](CCC(N)=O)NC(=O)[C@H](CO)NC(=O)[C@H](C)NC(=O)CC[C@H](NC(=O)CCCCCCCCCCCCCCCCCCC(=O)O)C(=O)O)[C@@H](C)O)[C@@H](C)O)C(=O)N[C@@H](CC(C)C)C(=O)N1CCC[C@H]1C(=O)N1CCC[C@H]1C(=O)N[C@H](C(=O)N[C@@H](CC(N)=O)C(=O)N[C@H](C(=O)NCC(=O)N[C@@H](CO)C(=O)N[C@@H](CC(N)=O)C(=O)N[C@H](C(=O)N1C[C@H](O)C[C@H]1C(N)=O)[C@@H](C)O)C(C)C)[C@@H](C)O) [polypeptide derivative M42]

Source: patent EP4663654A1 (Hangzhou Sciwind Biosciences Co., Ltd., dated 2025)
